Source: the nanobody polyreactivity screen of Harvey et al. (2022)

Assay: yeast display, Sf9 membrane polyspecificity reagent, FACS + sequencing; frameworks hold sequencing errors
Method in brief: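 A nanobody's polyreactivity label depends on the gate it was sorted from. Yeast display cells were stained with 10% biotinylated, detergent-solubilized Sf9 membrane reagent for 1 hour at 4 °C, enriched on streptavidin microbeads and sorted by FACS. The low and high (top ~1%) gates were set on anti-HA fluorescence for expression and streptavidin fluorescence for reagent binding.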

Sequence | polyreactivity (PSR sort gate)
QVQLVESGGGLVQAGGSLRLSCAASGFIFPGYAMGWYRQAPGKERELVATISRRGGSTYYADSVKGRFTISRDNAKNTVYLQMNSLQPEDTAVYYCNRIVTYGWQYDYDYWGQGTQVTVSS | high polyreactivity
QVQLVESGGGLVQAGGSLRLSCAASGFIFPHYTMGWYRPAPGKERELVAAISSSGGSTYYADSVKGRFTISRDNANNTVYLQMNSLKPEDTAVYYCAADWSITYGDGGYWGQGTQVTVSS | low polyreactivity
QVQLVESGGGLVQAGGSLRLSCAASGFIFPNNAMGWYRHAPGKERELVARISYGGGDTHYADSVKGRFTISRDNAKNTVYLQMNSLKPEDTAVYYCAVKDGQDDYWGQGTQVTVSS | low polyreactivity
QVQLVESGGGLVQAGGSLRLSCAASGFIFPRYAMGWYRQAPGKERELVAAISYSGGSTYYADSVKGRFTISRDNAKNTVYLQMNSLKPEDTAVYYCNAYFLSQYQRAYRDDYWGQGTQVTVST | high polyreactivity
QVQLVESGGGLVQAGGSLRLSCAASGFIFPRYAMGWYRQAPGKERELVAAISYSGGSTYYADSVKGRFTISRDNAKNTVYLQMNSLKPEDTAVYYCNTAPWWRTSSDYEYWGQGTQVTVSS | high polyreactivity
QVQLVESGGGLVQAGGSLRLSCAASGFIFPRYTMGWYRQAPGKERELVASITRGVRTHYADSVKGRFTISRDNAKNTVYLQMNSLKPEDTAVYYCARRNDYVYTRHFDSWGQGTQVTVSS | high polyreactivity
QVQLVESGGGLVQAGGSLRLSCAASGFIFPTYAMGWYRQAPGKEREFVASITRRGGSTYYADSVKGRFTISRDNAKNTVYLQMNSLKPEDTAVYYCAAGYYGFRGGGSDYWGQGTQVTVSS | high polyreactivity
QVQLVESGGGLVQAGGSLRLSCAASGFIFPTYAMGWYRQAPGKERELVATITTNAGGTYYADSVKGRFTISRDNAKNTVYLQMNSLKPEDTAVYYCAHDYDGYVWDTEYDYWGQGTQVTVSS | low polyreactivity
QVQLVESGGGLVQAGGSLRLSCAASGFIFPVYTKGWYRQAPGKERELVAAITQIGGSTHYADSVKGRFTISRDNAKNTVYLQMNSLKPEDTAVDYCNAVPSYGTEYDYWGQGTQVTVSS | low polyreactivity
QVQLVESGGGLVQAGGSLRLSCAASGFIFPVYTMGWSRQAPGKERELVGAITQIGGSTHYADSVKGRFSISRDNAKNTVYIQMNSLTPDDTAVYYCNAVPSYGTEYDYWGQGTHVTVSS | low polyreactivity
QVQLVESGGGLVQAGGSLRLSCAASGFIFPWYAMGWSRQAPGKERELVAIISWDTGSTYYADSVKGRFTISRDNAKNTVYLQMNSLKPEDTAVYYCVAYVGSTYSAPEYYWGQGTQVTVSS | low polyreactivity
QVQLVESGGGLVQAGGSLRLSCAASGFIFPWYAMGWYRQAPGKERELVAIISWDTGSTYYADSVKGRFTISRDNAKNTVYLQMNSLKPEDTAVYYCAAAYYYYVSGWFDYWGQGTQVTVSS | low polyreactivity
QVQLVESGGGLVQAGGSLRLSCAASGFIFPYAMGWYRQAPGKEREMVAAISSTDGSTYYADSVKGRFTISRDNAKNTVYLQMNSLKPEDTAVYSCNAPFSFARYPSSWHYWDYYYWGQGTQVTVSS | low polyreactivity
QVQLVESGGGLVQAGGSLRLSCAASGFIFPYFAMGWYRQAPGKERELVAAISGSGGSTYYADSVKGRFTISRDNAKNTVYLQMNSLKPEDTAVYYCAASARRLNMGYWGQGTQVTVSS | high polyreactivity
QVQLVESGGGLVQAGGSLRLSCAASGFIFPYNAMGWYRQAPGKERELVAAITYRDGSTYYPDSVKGRFTISRDNANNTVYGQMNSLKPEDTAVYYCAADRYVYWDLYGYWGQGTQVTVSS | low polyreactivity
QVQLVESGGGLVQAGGSLRLSCAASGFIFPYYAMGWYRQAPGKERELVAAISARGGSTYYADSVKGRFTISRDNAKNTFYLQMNRLKPEDTAVYYCAAPYPRWTGKDYDYWGQGTQVTVSS | high polyreactivity
QVQLVESGGGLVQAGGSLRLSCAASGFIFPYYAMGWYRQAPGKERELVAAISSSGGRTYYADSVKGRFTISRDNAKNTVYLQMNSLKPEDTAVYYCNARPNPYLGYGYWGQGTQVTVSS | high polyreactivity
QVQLVESGGGLVQAGGSLRLSCAASGFIFQGNAMGWYRQAPGKEREFVAAISWSGGRTYYADSVKGRFTISRDNAKNTVYLQMNSLKPEDTAVYYCAVTPVRFASGGAWMDYWGQGTQVTVSS | high polyreactivity
QVQLVESGGGLVQAGGSLRLSCAASGFIFQRNAMGWYRQAPGKERELVAAIRGTGGSTYYADSVKGRFTISRDNAKNTVYLQMNSLKPEDTAVYYCNRLSSYHMDYWGQGTQVTVSS | high polyreactivity
QVQLVESGGGLVQAGGSLRLSCAASGFIFQRYAMGWYRQAPGKESELVAAISSSGGSTYYADSVKGRFTISRDNAKNTVYLQMNSLKPEDTAVNYCAARVPPRTLAYYYWGQGTQVTVSS | high polyreactivity
QVQLVESGGGLVQAGGSLRLSCAASGFIFQYYAMGWYRQAPGKERELVAAINWSGGSTYYADSVKGRFTISRDNAKNSVYLQMNSLKPEDTAVYYCAADEYTSGYEYWGQGTQVTVSS | high polyreactivity
QVQLVESGGGLVQAGGSLRLSCAASGFIFQYYAMGWYRQAPGKERELVAAITPSGTSTYYADSVKGRFTISRDNAKNTVYLQMNSLKPEDTAVYYCAVRYYFVDFHSTTGYPYSYDYWGQGTQVTVSS | low polyreactivity

Sequence | polyreactivity (PSR sort gate)
QVQLVESGGGLVQAGGSLRLSCAASGFIFRDNAMGWSRQAPGKERELVAAISKSGGRTYYADSVKGRFTISRDNAKNTVYLQMNSLKPEETAVYYCAKASRYWSLYYWGQGSQVTVSS | high polyreactivity
QVQLVESGGGLVQAGGSLRLSCAASGFIFRDNAMGWYRPAPGKERELVAAISKSGGRTYYADSVKGRFTISRDNAKNTVYLQMNSLKPEDTAVYYCAKASRYWSLYYWGQGTQVTVSS | high polyreactivity
QVQLVESGGGLVQAGGSLRLSCAASGFIFRFNAMGWYIQAPGKSRELVAAISWSGSSTYYADSVKGRFTISRDNAKNTVYLQMTSLKPEDTAVYYCATSSLYYTIVKGDFYYWGQGTQVTVSS | high polyreactivity
QVQLVESGGGLVQAGGSLRLSCAASGFIFRFYAMGWYRQAPGKERELVATISKRGGTTYYADSVKGRFTISRDNAKNTVYLQMNSLKPEDTAVYYCAVRLYLEMDYWGQGTQVTVSS | high polyreactivity
QVQLVESGGGLVQAGGSLRLSCAASGFIFRGNAMGWYRQAPGKERELVAAISKSGGRTYYADSVKGRFTISRDNAKNTVYLQMNSLKPEDTAVYYCNVLRLGLGRESDSWGQGTQVTVSS | high polyreactivity
QVQLVESGGGLVQAGGSLRLSCAASGFIFRGNAMGWYRQAPGKERELVAAISKSGGRTYYADSVKGRFTISRDNAKNTVYLQMNSLKPEDTAVYYCNVLRMGLGRESDSWGQGTQVTVSA | high polyreactivity
QVQLVESGGGLVQAGGSLRLSCAASGFIFRGNAMGWYRQAPGKERELVASISRTGDTTYYADSVKGRFTISRDNAKNTVYLQMNSLKPEDTAVYYCARRSRVGYPLDSWGQGTQVTVSS | high polyreactivity
QVQLVESGGGLVQAGGSLRLSCAASGFIFRGYAMGLYRQAPGKERELVAAISKSGGSTYYADSVKGRFTISRDNAKNTVYLQMNSLKPEDTAVYYCATDILIDGFYYDYWGQGTQVTVSS | high polyreactivity
QVQLVESGGGLVQAGGSLRLSCAASGFIFRGYAMGWYRQAPGKERELVAAISRRGGSTYYADSVKGRFTISRDNAKNTVYLQMNSLKPEDTAVYYCNADTTPQGNVRDGYWGQGTQVTVSS | high polyreactivity
QVQLVESGGGLVQAGGSLRLSCAASGFIFRINAMGWYRQAPGKERELVAAISSSGGSTYYADSVKGRFTISRDNAKNTVYLQMNSLKPEDTAVYYCNAVGTGGYSSEYGYWGQGTQVTVSS | high polyreactivity
QVQLVESGGGLVQAGGSLRLSCAASGFIFRKYAMGWYRQAPGKERELVAAITASGGSTYYADSVKGRFTISRDNAKNTVYLQMNSLKPEDTAVYYCATDYHGAERWLKYDYWGQGTQVTVSS | high polyreactivity
QVQLVESGGGLVQAGGSLRLSCAASGFIFRNYAMGWYRQAPGKERELVAGITSSGGRTYYADSVKGRFTISRDNAKNTVYLQMNSLKPEDTAVYYCNIDVLYYRYTSFSNRYYYWGQGTQVTVSS | high polyreactivity
QVQLVESGGGLVQAGGSLRLSCAASGFIFRPYVMGWYRQAPGKERELVAAISRSGSSTYYADSVKGRFTISRDNAKNTVYLQMNSLKPEDTAVYYCARRTSQEFDYWGQGTQVTVSS | high polyreactivity
QVQLVESGGGLVQAGGSLRLSCAASGFIFRQYVMGWYRQAPGKERELVAAISWRTTSTYYADSVKGRFTISRDNAKNTVYLQMNSLKPEDTAVYYCAAPQVWWGYYTRGVDYWGQGTQVTVSS | low polyreactivity
QVQLVESGGGLVQAGGSLRLSCAASGFIFRRNAMGWYRQAPGKERELVAAISTRGGITYYADSVKGRFTISRDNAKNTVYLQMNSLKPDDTAVYYCAVVFVWGWPGYYWGQGTQVTVSS | high polyreactivity
QVQLVESGGGLVQAGGSLRLSCAASGFIFRRNAMGWYRQAPGKERELVASIRSGGSTKYADSVKGRFTISRDNAKNTVYLQMTSLKPEDTAVYYCNADDPGYAVPWYWFKYDYWGQGTQVTVSS | low polyreactivity
QVQLVESGGGLVQAGGSLRLSCAASGFIFRRYAMGWYRQAPGKDRALVAAITIGGSTSYADSVKGRFTISRDNAKKTVYVQMNSLKPEDTAVYYCNAGSFSRKARRYDYWGQGTQVTVSS | high polyreactivity
QVQLVESGGGLVQAGGSLRLSCAASGFIFRRYAMGWYRQAPGKERELVAAIRWDDGNTYYADSVKGRFTISRDNAKNTVYLQMNSLKPEDTAVYYCNADKWSSTDDWLYDYWGQGTQVTVSS | low polyreactivity
QVQLVESGGGLVQAGGSLRLSCAASGFIFRRYAMGWYRQAPGKERELVAAISGSGGRTYYADSVKGRFTISRDNAKNTVYLQMNSLKPEDTAVYYCAADHGSLLYDYWGQGTQVTVSS | high polyreactivity
QVQLVESGGGLVQAGGSLRLSCAASGFIFRRYAMGWYRQAPGKERELVAAISYNVVSTYYADSVKGRFTISRDNAKNTVYLQLNSLKPEVTAVYYCNTASSYRSFRYNYWGQGTQVTVSS | high polyreactivity
QVQLVESGGGLVQAGGSLRLSCAASGFIFRRYAMGWYRQAPGKERELVAGISNRGGRTYYADSVKGRFTISRDNAKNTVYLQMNSLKPEDTAVYYCAADQKSGYRVSRYYVFYDYWGQGTQVTVSS | high polyreactivity
